biological target: T1, human TrkA receptor on the cell surface (human, UniProt P04629 33-796); assay: flow cytometry on TF-1 cells, 4 µg/ml; design: Geo Mean Fluorescence: reference not given here
T1 construct: whole, on cells; PC12-hTrkA: high density; also called hTrkA; huTrkA
T1 sequence (P04629 33-796): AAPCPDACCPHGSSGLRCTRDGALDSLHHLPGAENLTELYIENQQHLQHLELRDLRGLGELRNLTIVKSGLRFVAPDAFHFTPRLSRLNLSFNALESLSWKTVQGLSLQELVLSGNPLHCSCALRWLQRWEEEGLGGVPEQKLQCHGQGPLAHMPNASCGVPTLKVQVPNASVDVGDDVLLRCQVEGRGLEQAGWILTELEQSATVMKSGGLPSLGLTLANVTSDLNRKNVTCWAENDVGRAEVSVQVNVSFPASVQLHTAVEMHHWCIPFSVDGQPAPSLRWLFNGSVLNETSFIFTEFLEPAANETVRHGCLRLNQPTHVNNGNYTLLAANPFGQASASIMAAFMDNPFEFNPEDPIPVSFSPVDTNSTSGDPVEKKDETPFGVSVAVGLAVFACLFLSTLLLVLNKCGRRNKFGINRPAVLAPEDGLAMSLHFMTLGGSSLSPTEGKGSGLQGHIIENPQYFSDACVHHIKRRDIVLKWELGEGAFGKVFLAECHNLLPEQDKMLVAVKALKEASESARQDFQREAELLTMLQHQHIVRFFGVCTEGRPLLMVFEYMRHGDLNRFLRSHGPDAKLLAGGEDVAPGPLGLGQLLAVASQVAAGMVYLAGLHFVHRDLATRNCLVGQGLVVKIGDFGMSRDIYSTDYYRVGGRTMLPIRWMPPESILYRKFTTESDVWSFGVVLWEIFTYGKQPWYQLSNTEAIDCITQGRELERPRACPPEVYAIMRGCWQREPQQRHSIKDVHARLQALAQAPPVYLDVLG

Row | Fold Increase | Geo Mean Fluorescence | Binder
1 | 1.5 fold | 5.2 | BXhVH1VL8 (antibody, human IgG1, V domains shown, Human IgG1 constant regions (IgG1 expression vectors); COS-7 supernatant; also called hVH1/hVL8) VH: EVKLLESGGGLVQPGGSLRLSCAASGFTFSTYTMSWVRQTPGKGLEWVAYISKGGGSTYYPDTVKGRFTISRDNSKNTLYLQMNSLRAEDTAVYYCAKGAMYGNDFFYPMDYWGQGTTVTVSS VL: QIVLTQSPATLSLSPGEEATLSCSASSSVSYMHWYQQKSGTSPRLLIYTTSNLASGIPSRFSGSGSGTFYTLTISSLEPEDAADYYCHQWSSYPWTFGGGTKLEIK
2 | 1.8 fold | 6.4 | BXhVH3VL6 (antibody, human IgG1, V domains shown, Human IgG1 constant regions (IgG1 expression vectors); COS-7 supernatant; also called hVH3/hVL6) VH: EVQLLESGGGLVQPGGSLRLSCAASGFTFSTYTMSWVRQAPGKRLEWVAYISKGGGSTYYPDTVKGRFTISRDNSKNTLYLQMNSLRAEDTAVYYCARGAMYGNDFFYPMDYWGQGTTVTVSS VL: EIVLTQSPATLSLSPGEEATLSCSASSSVSYMHWYQQKPGQSPRLLIYTTSNLASGIPSRFSGSGSGTFYTLTISSLEPEDAADYYCHQWSSYPWTFGGGTKLEIK
3 | 3.1 fold | 10.8 | BXhVH2VL3 (antibody, human IgG1, V domains shown, Human IgG1 constant regions (IgG1 expression vectors); COS-7 supernatant; also called hVH2/hVL3) VH: EVQLLESGGGLVQPGGSLRLSCAASGFTFSTYTMSWVRQTPGKRLEWVAYISKGGGSTYYPDTVKGRFTISRDNSKNTLYLQMNSLRAEDTAVYYCAKGAMYGNDFFYPMDYWGQGTTVTVSS VL: QIVLTQSPATLSLSPGERATLSCSASSSVSYMHWYQQKPGQSPRLLIYTTSNLASGIPSRFSGSGSGTFYTLTISSLEPEDFAVYYCHQWSSYPWTFGGGTKLEIK
4 | 2.5 fold | 8.6 | BXhVH5VL2 (antibody, human IgG1, V domains shown, Human IgG1 constant regions (IgG1 expression vectors); COS-7 supernatant; also called hVH5/hVL2) VH: EVKLLESGGGLVQPGGSLRLSCAASGFTFSTYTMSWVRQTPGKRLEWVAYISKGGGSTYYPDTVKGRFTISRDNSKNTLYLQMNSLRAEDTAVYYCARGAMYGNDFFYPMDYWGQGTTVTVSS VL: EIVLTQSPATLSLSPGERATLSCSASSSVSYMHWYQQKPGQSPRLLIYTTSNLASGIPSRFSGSGSGTDFTLTISSLEPEDAADYYCHQWSSYPWTFGQGTKLEIK
5 | 2.4 fold | 8.3 | BXhVH5VL5 (antibody, human IgG1, V domains shown, Human IgG1 constant regions (IgG1 expression vectors); COS-7 supernatant; also called hVH5/hVL5) VH: EVKLLESGGGLVQPGGSLRLSCAASGFTFSTYTMSWVRQTPGKRLEWVAYISKGGGSTYYPDTVKGRFTISRDNSKNTLYLQMNSLRAEDTAVYYCARGAMYGNDFFYPMDYWGQGTTVTVSS VL: QIVLTQSPATLSLSPGERATLSCSASSSVSYMHWYQQKPGQSPRLLIYTTSNLASGIPSRFSGSGSGTDYTLTISSLEPEDAADYYCHQWSSYPWTFGQGTKLEIK
6 | 1.9 fold | 6.5 | BXhVH3VL8 (antibody, human IgG1, V domains shown, Human IgG1 constant regions (IgG1 expression vectors); COS-7 supernatant; also called hVH3/hVL8) VH: EVQLLESGGGLVQPGGSLRLSCAASGFTFSTYTMSWVRQAPGKRLEWVAYISKGGGSTYYPDTVKGRFTISRDNSKNTLYLQMNSLRAEDTAVYYCARGAMYGNDFFYPMDYWGQGTTVTVSS VL: QIVLTQSPATLSLSPGEEATLSCSASSSVSYMHWYQQKSGTSPRLLIYTTSNLASGIPSRFSGSGSGTFYTLTISSLEPEDAADYYCHQWSSYPWTFGGGTKLEIK
7 | 2.5 fold | 8.6 | BXhVH3VL1 (antibody, human IgG1, V domains shown, Human IgG1 constant regions (IgG1 expression vectors); COS-7 supernatant; also called hVH3/hVL1) VH: EVQLLESGGGLVQPGGSLRLSCAASGFTFSTYTMSWVRQAPGKRLEWVAYISKGGGSTYYPDTVKGRFTISRDNSKNTLYLQMNSLRAEDTAVYYCARGAMYGNDFFYPMDYWGQGTTVTVSS VL: EIVLTQSPATLSLSPGERATLSCSASSSVSYMHWYQQKPGQAPRLLIYTTSNLASGIPARFSGSGSGTDFTLTISSLEPEDFAVYYCHQWSSYPWTFGQGTKLEIK
8 | 2.5 fold | 8.6 | BXhVH5VL7 (antibody, human IgG1, V domains shown, Human IgG1 constant regions (IgG1 expression vectors); COS-7 supernatant; also called hVH5/hVL7) VH: EVKLLESGGGLVQPGGSLRLSCAASGFTFSTYTMSWVRQTPGKRLEWVAYISKGGGSTYYPDTVKGRFTISRDNSKNTLYLQMNSLRAEDTAVYYCARGAMYGNDFFYPMDYWGQGTTVTVSS VL: QIVLTQSPATLSLSPGERATLSCSASSSVSYMHWYQQKPGQSPRLLIYTTSNLASGIPSRFSGSGSGTFYTLTISSLEPEDAADYYCHQWSSYPWTFGGGTKLEIK
9 | 1.8 fold | 6.4 | BXhVH2VL2 (antibody, human IgG1, V domains shown, Human IgG1 constant regions (IgG1 expression vectors); COS-7 supernatant; also called hVH2/hVL2) VH: EVQLLESGGGLVQPGGSLRLSCAASGFTFSTYTMSWVRQTPGKRLEWVAYISKGGGSTYYPDTVKGRFTISRDNSKNTLYLQMNSLRAEDTAVYYCAKGAMYGNDFFYPMDYWGQGTTVTVSS VL: EIVLTQSPATLSLSPGERATLSCSASSSVSYMHWYQQKPGQSPRLLIYTTSNLASGIPSRFSGSGSGTDFTLTISSLEPEDAADYYCHQWSSYPWTFGQGTKLEIK
10 | 2 fold | 7.1 | BXhVH3VL4 (antibody, human IgG1, V domains shown, Human IgG1 constant regions (IgG1 expression vectors); COS-7 supernatant; also called hVH3/hVL4) VH: EVQLLESGGGLVQPGGSLRLSCAASGFTFSTYTMSWVRQAPGKRLEWVAYISKGGGSTYYPDTVKGRFTISRDNSKNTLYLQMNSLRAEDTAVYYCARGAMYGNDFFYPMDYWGQGTTVTVSS VL: QIVLTQSPATLSLSPGERATLSCSASSSVSYMHWYQQKPGQSPRLLIYTTSNLASGIPSRFSGSGSGTDFTLTISSLEPEDAADYYCHQWSSYPWTFGGGTKLEIK
11 | 2 fold | 6.9 | BXhVH3VL5 (antibody, human IgG1, V domains shown, Human IgG1 constant regions (IgG1 expression vectors); COS-7 supernatant; also called hVH3/hVL5) VH: EVQLLESGGGLVQPGGSLRLSCAASGFTFSTYTMSWVRQAPGKRLEWVAYISKGGGSTYYPDTVKGRFTISRDNSKNTLYLQMNSLRAEDTAVYYCARGAMYGNDFFYPMDYWGQGTTVTVSS VL: QIVLTQSPATLSLSPGERATLSCSASSSVSYMHWYQQKPGQSPRLLIYTTSNLASGIPSRFSGSGSGTDYTLTISSLEPEDAADYYCHQWSSYPWTFGQGTKLEIK
12 | 1.8 fold | 6.1 | BXhVH2VL4 (antibody, human IgG1, V domains shown, Human IgG1 constant regions (IgG1 expression vectors); COS-7 supernatant; also called hVH2/hVL4) VH: EVQLLESGGGLVQPGGSLRLSCAASGFTFSTYTMSWVRQTPGKRLEWVAYISKGGGSTYYPDTVKGRFTISRDNSKNTLYLQMNSLRAEDTAVYYCAKGAMYGNDFFYPMDYWGQGTTVTVSS VL: QIVLTQSPATLSLSPGERATLSCSASSSVSYMHWYQQKPGQSPRLLIYTTSNLASGIPSRFSGSGSGTDFTLTISSLEPEDAADYYCHQWSSYPWTFGGGTKLEIK
13 | 2 fold | 7.1 | BXhVH3VL2 (antibody, human IgG1, V domains shown, Human IgG1 constant regions (IgG1 expression vectors); COS-7 supernatant; also called hVH3/hVL2) VH: EVQLLESGGGLVQPGGSLRLSCAASGFTFSTYTMSWVRQAPGKRLEWVAYISKGGGSTYYPDTVKGRFTISRDNSKNTLYLQMNSLRAEDTAVYYCARGAMYGNDFFYPMDYWGQGTTVTVSS VL: EIVLTQSPATLSLSPGERATLSCSASSSVSYMHWYQQKPGQSPRLLIYTTSNLASGIPSRFSGSGSGTDFTLTISSLEPEDAADYYCHQWSSYPWTFGQGTKLEIK
14 | 1.8 fold | 6.4 | BXhVH2VL5 (antibody, human IgG1, V domains shown, Human IgG1 constant regions (IgG1 expression vectors); COS-7 supernatant; also called hVH2/hVL5) VH: EVQLLESGGGLVQPGGSLRLSCAASGFTFSTYTMSWVRQTPGKRLEWVAYISKGGGSTYYPDTVKGRFTISRDNSKNTLYLQMNSLRAEDTAVYYCAKGAMYGNDFFYPMDYWGQGTTVTVSS VL: QIVLTQSPATLSLSPGERATLSCSASSSVSYMHWYQQKPGQSPRLLIYTTSNLASGIPSRFSGSGSGTDYTLTISSLEPEDAADYYCHQWSSYPWTFGQGTKLEIK
15 | 2.6 fold | 9.1 | BXhVH5VL4 (antibody, human IgG1, V domains shown, Human IgG1 constant regions (IgG1 expression vectors); COS-7 supernatant; also called hVH5/hVL4) VH: EVKLLESGGGLVQPGGSLRLSCAASGFTFSTYTMSWVRQTPGKRLEWVAYISKGGGSTYYPDTVKGRFTISRDNSKNTLYLQMNSLRAEDTAVYYCARGAMYGNDFFYPMDYWGQGTTVTVSS VL: QIVLTQSPATLSLSPGERATLSCSASSSVSYMHWYQQKPGQSPRLLIYTTSNLASGIPSRFSGSGSGTDFTLTISSLEPEDAADYYCHQWSSYPWTFGGGTKLEIK
16 | 1.9 fold | 6.5 | BXhVH2VL8 (antibody, human IgG1, V domains shown, Human IgG1 constant regions (IgG1 expression vectors); COS-7 supernatant; also called hVH2/hVL8) VH: EVQLLESGGGLVQPGGSLRLSCAASGFTFSTYTMSWVRQTPGKRLEWVAYISKGGGSTYYPDTVKGRFTISRDNSKNTLYLQMNSLRAEDTAVYYCAKGAMYGNDFFYPMDYWGQGTTVTVSS VL: QIVLTQSPATLSLSPGEEATLSCSASSSVSYMHWYQQKSGTSPRLLIYTTSNLASGIPSRFSGSGSGTFYTLTISSLEPEDAADYYCHQWSSYPWTFGGGTKLEIK
17 | 2 fold | 7.1 | BXhVH3VL7 (antibody, human IgG1, V domains shown, Human IgG1 constant regions (IgG1 expression vectors); COS-7 supernatant; also called hVH3/hVL7) VH: EVQLLESGGGLVQPGGSLRLSCAASGFTFSTYTMSWVRQAPGKRLEWVAYISKGGGSTYYPDTVKGRFTISRDNSKNTLYLQMNSLRAEDTAVYYCARGAMYGNDFFYPMDYWGQGTTVTVSS VL: QIVLTQSPATLSLSPGERATLSCSASSSVSYMHWYQQKPGQSPRLLIYTTSNLASGIPSRFSGSGSGTFYTLTISSLEPEDAADYYCHQWSSYPWTFGGGTKLEIK
18 | 2.6 fold | 9.2 | BXhVH2VL1 (antibody, human IgG1, V domains shown, Human IgG1 constant regions (IgG1 expression vectors); COS-7 supernatant; also called hVH2/hVL1) VH: EVQLLESGGGLVQPGGSLRLSCAASGFTFSTYTMSWVRQTPGKRLEWVAYISKGGGSTYYPDTVKGRFTISRDNSKNTLYLQMNSLRAEDTAVYYCAKGAMYGNDFFYPMDYWGQGTTVTVSS VL: EIVLTQSPATLSLSPGERATLSCSASSSVSYMHWYQQKPGQAPRLLIYTTSNLASGIPARFSGSGSGTDFTLTISSLEPEDFAVYYCHQWSSYPWTFGQGTKLEIK
19 | 1.8 fold | 6.4 | BXhVH2VL6 (antibody, human IgG1, V domains shown, Human IgG1 constant regions (IgG1 expression vectors); COS-7 supernatant; also called hVH2/hVL6) VH: EVQLLESGGGLVQPGGSLRLSCAASGFTFSTYTMSWVRQTPGKRLEWVAYISKGGGSTYYPDTVKGRFTISRDNSKNTLYLQMNSLRAEDTAVYYCAKGAMYGNDFFYPMDYWGQGTTVTVSS VL: EIVLTQSPATLSLSPGEEATLSCSASSSVSYMHWYQQKPGQSPRLLIYTTSNLASGIPSRFSGSGSGTFYTLTISSLEPEDAADYYCHQWSSYPWTFGGGTKLEIK
20 | 2.6 fold | 9.1 | BXhVH5VL6 (antibody, human IgG1, V domains shown, Human IgG1 constant regions (IgG1 expression vectors); COS-7 supernatant; also called hVH5/hVL6) VH: EVKLLESGGGLVQPGGSLRLSCAASGFTFSTYTMSWVRQTPGKRLEWVAYISKGGGSTYYPDTVKGRFTISRDNSKNTLYLQMNSLRAEDTAVYYCARGAMYGNDFFYPMDYWGQGTTVTVSS VL: EIVLTQSPATLSLSPGEEATLSCSASSSVSYMHWYQQKPGQSPRLLIYTTSNLASGIPSRFSGSGSGTFYTLTISSLEPEDAADYYCHQWSSYPWTFGGGTKLEIK
